Results from PMC8927147 (2022).
Ends that are not written are not given here. * marks the point of attachment. Bz = O=C(c1ccccc1)*

T1: Taf14_(YEATS) (S. cerevisiae, UniProt P35189 2-137)
T1 chain: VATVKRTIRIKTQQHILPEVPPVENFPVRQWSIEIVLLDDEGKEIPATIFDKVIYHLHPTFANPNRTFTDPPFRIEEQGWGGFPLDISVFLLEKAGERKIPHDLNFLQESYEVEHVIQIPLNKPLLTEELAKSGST

T2: Sas5_(YEATS) (S. cerevisiae, UniProt Q99314 2-139)
T2 chain: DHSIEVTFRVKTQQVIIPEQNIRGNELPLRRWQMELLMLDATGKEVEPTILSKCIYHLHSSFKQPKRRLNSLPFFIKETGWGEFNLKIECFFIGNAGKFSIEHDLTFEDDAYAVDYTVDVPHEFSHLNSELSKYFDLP

B1: H3K14bz peptide (peptide)
chain: TARKSTGGK(Bz)APRKQLASY
B2: H3K27bz peptide (peptide)
chain: KQLASKAARK(Bz)SAPSTGGVKY
B3: H3K18bz peptide (peptide)
chain: STGGKAPRKQLASKAARY
modifications: benzoyl-lysine (Kbz) at K18
B4: H3K9bz peptide (peptide)
peptide: ARTKQTARKSTGGKAPRKQY
modifications: benzoyl-lysine (Kbz) at K9
B5: H3K23bz peptide (peptide)
chain: APRKQLASK(Bz)AARKSAPSTY

What was measured:
Test in all cases: ITC
[1] = molecular target: T1, Taf14_(YEATS)
[2] = molecular target: T2, Sas5_(YEATS)
[3] = molecular target: Hst2 (S. cerevisiae, UniProt P53686 1-357)
Chain of Hst2 (P53686 whole entry): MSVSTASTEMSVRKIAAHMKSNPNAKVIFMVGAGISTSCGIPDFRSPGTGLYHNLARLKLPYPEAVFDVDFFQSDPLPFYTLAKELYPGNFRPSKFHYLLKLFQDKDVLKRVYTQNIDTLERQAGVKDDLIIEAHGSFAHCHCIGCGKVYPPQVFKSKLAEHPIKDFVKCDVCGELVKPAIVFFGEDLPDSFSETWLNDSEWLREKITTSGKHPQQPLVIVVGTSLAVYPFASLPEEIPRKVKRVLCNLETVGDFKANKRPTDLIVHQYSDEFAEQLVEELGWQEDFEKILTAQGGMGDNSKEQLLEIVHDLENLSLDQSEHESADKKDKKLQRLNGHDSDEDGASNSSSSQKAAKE

Binder	Kd [1]	Kd [2]	Kd [3]
B1	385 µM	100 µM	13.2 µM
B2	136 µM	92.6 µM	6.13 µM
B3	85.5 µM	245 µM	1.74 µM
B4		178 µM	
B5	467 µM	279 µM	14.8 µM
